Assay [1] addresses T1, wild-type human PTHR (human, UniProt Q03431 27-593).
T1 construct: whole, on cells; also called PTHR-WT; intact PTHR
T1 sequence (looked up): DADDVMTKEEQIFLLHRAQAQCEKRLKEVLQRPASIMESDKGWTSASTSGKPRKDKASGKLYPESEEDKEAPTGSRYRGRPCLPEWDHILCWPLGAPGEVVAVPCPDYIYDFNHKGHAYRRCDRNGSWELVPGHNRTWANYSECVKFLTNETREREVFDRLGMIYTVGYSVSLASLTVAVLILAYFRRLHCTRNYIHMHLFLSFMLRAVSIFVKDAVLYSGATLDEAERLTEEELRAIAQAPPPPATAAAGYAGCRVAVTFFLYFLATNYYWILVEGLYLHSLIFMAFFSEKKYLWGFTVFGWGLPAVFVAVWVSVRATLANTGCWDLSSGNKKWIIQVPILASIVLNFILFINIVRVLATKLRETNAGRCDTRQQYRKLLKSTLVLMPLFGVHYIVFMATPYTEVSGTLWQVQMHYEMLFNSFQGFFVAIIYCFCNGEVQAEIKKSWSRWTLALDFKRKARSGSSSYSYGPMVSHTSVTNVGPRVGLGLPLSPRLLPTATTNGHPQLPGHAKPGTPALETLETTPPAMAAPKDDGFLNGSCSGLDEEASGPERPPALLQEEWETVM
As to the kind of experiment: competition binding, HKRK-B7 cells, 125I-PTH(1-34) tracer. As to the method:
(§1) Receptor binding—Binding to the wild-type human PTHR in intact HKRK-B7 cells and ROS 17/2.8 cells was assessed using ¹²⁵I-PTH(1-34) as a tracer radioligand, as described (Shimizu, M., (2001) Endocrinology 142:3068-3074). In brief, the cells in 24-well plates (about 500,000 cells per well) were incubated in binding buffer containing radioligand (about 100,000 cpm per well) with or without unlabeled peptide ligand (3×10⁻⁹ to 1×10⁻⁵ M) for four hours at 15° C. The binding mixture was then removed by aspiration, the cells were rinsed three times with binding buffer, lysed in 1 M NaOH, and the entire lysate was counted for gamma-irradiation in a gamma counter. Binding to PTHR-delNt in COS-7 cell membranes was assessed in 96-well, vacuum filtration plates (Multiscreen-Durapore HV, […], Millipore Corp., Millford, Mass.) using ¹²⁵I-[Aib^{1,3},M]PTH(1-15)NH₂ as a tracer radioligand, as described (Dean, T., (2006) Mol Endocrinol 20:931-942). In brief, cell membranes (20 μg/well) were incubated in membrane binding buffer containing radioligand (30,000 cpm/well) with or without unlabeled peptide ligand (3×10⁻⁹ to 1×10⁻⁵ M) for 90 minutes at 21° C. The plates were then subject to rapid vacuum filtration, the filters were washed once with buffer, detached from the plate and counted for gamma-irradiation in a gamma counter. Non-specific binding was defined as the binding observed in the presence of 1×10⁻⁶ M PTH(1-31)NH₂ for HKRK-B7 and ROS 17/2.8 cells, and 1×10⁻⁶ M [Aib^{1,3},M]PTH(1-15)NH₂ for PTHR-delNt. Specifically bound radioactivity was calculated as a percentage of the radioactivity specifically bound in the absence of competing ligand.
Cyclohexylalanine and glutamate substitutions were introduced into [Ala¹,Arg¹⁹]hPTH(1-31)NH₂. The helical residue values were calculated from [θ]₂₂₂, the mean-residue elipticities observed in the CD spectra at 222 nm. Competition binding studies were performed in intact HKRK-B7 cells stably transfected with the hPTHR using ¹²⁵I-[Nle^{8,21},Tyr³⁴]rPTH(1-34)NH ₂ tracer radioligand, and in membranes prepared from COS-7 cells transiently transfected with hPTHR-delNt and a negative-dominant Gαs using ¹²⁵I-[Aib^{1,3},Nle⁸,Gln¹⁰,Har¹¹,Ala¹²,Trp¹⁴,Tyr¹⁵]rPTH(1-15)NH₂ tracer radioligand. Binding values (nM) are means (+/−s.e.m.) of data from the number of experiments indicated (n).

Assay [2] concerns the target T1, wild-type human PTHR. Described as above. The source holds these as a separate data set.
The next assay concerns the target PTHR-delNt (human) (UniProt Q03431). As to the kind of experiment: competition binding, COS-7 membranes, 125I-[Aib1,3,M]PTH(1-15) tracer.
The target in assay [3] is T1, wild-type human PTHR. Nature of the assay: competition binding, HKRK-B7 cells, 125I-PTH(1-34) tracer. As to the method:
as §1
Alanine-Scan of the PTH(17-31) domain—Each residue in the (17-31) region of PTH(1-31)NH₂ was individually replaced with alanine and the effects of the substitutions on binding to the intact human PTHR stably expressed in HKRK-B7 cells was assessed. Competition binding studies were performed using whole cells and ¹²⁵I-PTH(1-34) (¹²⁵I-[Nle^{8,21},Tyr³⁴]ratPTH(1-34)NH₂) as a tracer radioligand.
The source holds these as a separate data set.

Where two headings read alike, the source gives them in different places. Where no end group is shown, it is not given here. [ ]: non-standard residue; d: D form. Gly(1-amidinopiperidin-4-yl) = N=C(N)N1CCC([C@H](N)C(=O)O)CC1; Cha = N[C@@H](CC1CCCCC1)C(=O)O Where only a bound is given, the exact number is not on record here.

B1: [Ala^1,Arg^19]hPTH(1-31)NH2 Ser^17→Cha (peptide)
peptide: AVSEIQLMHNLGKHLN[Cha]MRRVEWLRKKLQDV-NH2
modifications: N-terminus assumed
SMILES: CC[C@H](C)[C@H](NC(=O)[C@H](CCC(=O)O)NC(=O)[C@H](CO)NC(=O)[C@@H](NC(=O)[C@H](C)N)C(C)C)C(=O)N[C@@H](CCC(N)=O)C(=O)N[C@@H](CC(C)C)C(=O)N[C@@H](CCSC)C(=O)N[C@@H](Cc1c[nH]cn1)C(=O)N[C@@H](CC(N)=O)C(=O)N[C@@H](CC(C)C)C(=O)NCC(=O)N[C@@H](CCCCN)C(=O)N[C@@H](Cc1c[nH]cn1)C(=O)N[C@@H](CC(C)C)C(=O)N[C@@H](CC(N)=O)C(=O)N[C@@H](CC1CCCCC1)C(=O)N[C@@H](CCSC)C(=O)N[C@@H](CCCNC(=N)N)C(=O)N[C@@H](CCCNC(=N)N)C(=O)N[C@H](C(=O)N[C@@H](CCC(=O)O)C(=O)N[C@@H](Cc1c[nH]c2ccccc12)C(=O)N[C@@H](CC(C)C)C(=O)N[C@@H](CCCNC(=N)N)C(=O)N[C@@H](CCCCN)C(=O)N[C@@H](CCCCN)C(=O)N[C@@H](CC(C)C)C(=O)N[C@@H](CCC(N)=O)C(=O)N[C@@H](CC(=O)O)C(=O)N[C@H](C(N)=O)C(C)C)C(C)C
As for B1, the IC50 with wild-type human PTHR [1] came out at 112 nM; in the assay with PTHR-delNt (human) it was 179 nM. The “fold change in binding affinity vs [Ala^1,Arg^19]PTH(1-31)NH2” value (“fold change in binding affinity” for short) in the assay with wild-type human PTHR [2] was not above 6 fold; with PTHR-delNt (human) it was less than 3 fold.

B2: [Ala^1,Arg^19]hPTH(1-31)NH2 Met^18→Cha (peptide)
peptide: AVSEIQLMHNLGKHLNS[Cha]RRVEWLRKKLQDV-NH2
modifications: N-terminus assumed
SMILES: CC[C@H](C)[C@H](NC(=O)[C@H](CCC(=O)O)NC(=O)[C@H](CO)NC(=O)[C@@H](NC(=O)[C@H](C)N)C(C)C)C(=O)N[C@@H](CCC(N)=O)C(=O)N[C@@H](CC(C)C)C(=O)N[C@@H](CCSC)C(=O)N[C@@H](Cc1c[nH]cn1)C(=O)N[C@@H](CC(N)=O)C(=O)N[C@@H](CC(C)C)C(=O)NCC(=O)N[C@@H](CCCCN)C(=O)N[C@@H](Cc1c[nH]cn1)C(=O)N[C@@H](CC(C)C)C(=O)N[C@@H](CC(N)=O)C(=O)N[C@@H](CO)C(=O)N[C@@H](CC1CCCCC1)C(=O)N[C@@H](CCCNC(=N)N)C(=O)N[C@@H](CCCNC(=N)N)C(=O)N[C@H](C(=O)N[C@@H](CCC(=O)O)C(=O)N[C@@H](Cc1c[nH]c2ccccc12)C(=O)N[C@@H](CC(C)C)C(=O)N[C@@H](CCCNC(=N)N)C(=O)N[C@@H](CCCCN)C(=O)N[C@@H](CCCCN)C(=O)N[C@@H](CC(C)C)C(=O)N[C@@H](CCC(N)=O)C(=O)N[C@@H](CC(=O)O)C(=O)N[C@H](C(N)=O)C(C)C)C(C)C
As to B2, the IC50 in the assay with wild-type human PTHR [1] stood at 87 nM; with PTHR-delNt (human), 408 nM. Further, the entries for the “fold change in binding affinity” value with wild-type human PTHR [2] and with PTHR-delNt (human) were not above 6 fold and less than 3 fold, respectively.

B3: [Ala^1,Arg^19]hPTH(1-31)NH2 Arg^25→Glu (peptide)
peptide: AVSEIQLMHNLGKHLNSMRRVEWLEKKLQDV-NH2
Take B3: the IC50 came to 189 nM in the assay with wild-type human PTHR [1] and 1630 nM with PTHR-delNt (human). Also, in the assay with PTHR-delNt (human), the fold reduction in binding affinity vs [Ala^1,Arg^19]PTH(1-31)NH2 came to 4 fold.

B4: [Ala^1,Arg^19]hPTH(1-31)NH2 Lys^26→Glu (peptide)
peptide: AVSEIQLMHNLGKHLNSMRRVEWLREKLQDV-NH2
With B4, the IC50 with wild-type human PTHR [1] amounted to 60 nM; with PTHR-delNt (human) it was 832 nM.

B5: [Ala^1,Arg^19]hPTH(1-31)NH2 Val^21→Glu (peptide)
peptide: AVSEIQLMHNLGKHLNSMRREEWLRKKLQDV-NH2
Turning to B5, the half-inhibitory concentration (IC50) with wild-type human PTHR [1] came out at 447 nM; with PTHR-delNt (human) it was 1620 nM. Also, the “fold reduction in binding affinity vs [Ala^1,Arg^19]PTH(1-31)NH2” value with wild-type human PTHR [2] is 12 fold; with PTHR-delNt (human), 4 fold.

B6: [Ala^1,Arg^19]hPTH(1-31)NH2 Lys^27→Glu (peptide)
peptide: AVSEIQLMHNLGKHLNSMRRVEWLRKELQDV-NH2
In the case of B6, the half-maximal inhibitory concentration (IC50) is 156 nM in the assay with wild-type human PTHR [1] and 1270 nM with PTHR-delNt (human).

B7: PTH(1-31)NH2 Arg^20→PipGly (peptide)
peptide: SVSEIQLMHNLGKHLNSME[Gly(1-amidinopiperidin-4-yl)]VEWLRKKLQDV-NH2
modifications: N-terminus assumed
SMILES: CC[C@H](C)[C@H](NC(=O)[C@H](CCC(=O)O)NC(=O)[C@H](CO)NC(=O)[C@@H](NC(=O)[C@@H](N)CO)C(C)C)C(=O)N[C@@H](CCC(N)=O)C(=O)N[C@@H](CC(C)C)C(=O)N[C@@H](CCSC)C(=O)N[C@@H](Cc1c[nH]cn1)C(=O)N[C@@H](CC(N)=O)C(=O)N[C@@H](CC(C)C)C(=O)NCC(=O)N[C@@H](CCCCN)C(=O)N[C@@H](Cc1c[nH]cn1)C(=O)N[C@@H](CC(C)C)C(=O)N[C@@H](CC(N)=O)C(=O)N[C@@H](CO)C(=O)N[C@@H](CCSC)C(=O)N[C@@H](CCC(=O)O)C(=O)N[C@H](C(=O)N[C@H](C(=O)N[C@@H](CCC(=O)O)C(=O)N[C@@H](Cc1c[nH]c2ccccc12)C(=O)N[C@@H](CC(C)C)C(=O)N[C@@H](CCCNC(=N)N)C(=O)N[C@@H](CCCCN)C(=O)N[C@@H](CCCCN)C(=O)N[C@@H](CC(C)C)C(=O)N[C@@H](CCC(N)=O)C(=O)N[C@@H](CC(=O)O)C(=O)N[C@H](C(N)=O)C(C)C)C(C)C)C1CCN(C(=N)N)CC1
Consider B7, for which the “fold reduction in binding affinity vs PTH(1-31)NH2” value with wild-type human PTHR [2] was approximately 200 fold. For the same molecule, in the assay with wild-type human PTHR [3], the IC50 worked out at 14100 nM. Also, in the assay with PTHR-delNt (human), the half-inhibitory concentration (IC50) was found to be 6600 nM and the fold difference of IC50 from PTH(1-31)NH2 was less than 4 fold.

B8: [Ala^1,Arg^19]hPTH(1-31)NH2 Arg^19→Cha (peptide)
peptide: AVSEIQLMHNLGKHLNSM[Cha]RVEWLRKKLQDV-NH2
modifications: N-terminus assumed
SMILES: CC[C@H](C)[C@H](NC(=O)[C@H](CCC(=O)O)NC(=O)[C@H](CO)NC(=O)[C@@H](NC(=O)[C@H](C)N)C(C)C)C(=O)N[C@@H](CCC(N)=O)C(=O)N[C@@H](CC(C)C)C(=O)N[C@@H](CCSC)C(=O)N[C@@H](Cc1c[nH]cn1)C(=O)N[C@@H](CC(N)=O)C(=O)N[C@@H](CC(C)C)C(=O)NCC(=O)N[C@@H](CCCCN)C(=O)N[C@@H](Cc1c[nH]cn1)C(=O)N[C@@H](CC(C)C)C(=O)N[C@@H](CC(N)=O)C(=O)N[C@@H](CO)C(=O)N[C@@H](CCSC)C(=O)N[C@@H](CC1CCCCC1)C(=O)N[C@@H](CCCNC(=N)N)C(=O)N[C@H](C(=O)N[C@@H](CCC(=O)O)C(=O)N[C@@H](Cc1c[nH]c2ccccc12)C(=O)N[C@@H](CC(C)C)C(=O)N[C@@H](CCCNC(=N)N)C(=O)N[C@@H](CCCCN)C(=O)N[C@@H](CCCCN)C(=O)N[C@@H](CC(C)C)C(=O)N[C@@H](CCC(N)=O)C(=O)N[C@@H](CC(=O)O)C(=O)N[C@H](C(N)=O)C(C)C)C(C)C
For the molecule B8, the figures for the IC50 with wild-type human PTHR [1] and with PTHR-delNt (human) were 233 nM and 780 nM, respectively. Besides, the results for the “fold change in binding affinity” value in the assay with wild-type human PTHR [2] and in the assay with PTHR-delNt (human) were not above 6 fold and less than 3 fold, respectively.

What is called IC50 is the concentration that inhibits the measured activity by half.
